# Measurements reported in patent US20170058297A1.
# T1: Cre-B2
# T1 chain: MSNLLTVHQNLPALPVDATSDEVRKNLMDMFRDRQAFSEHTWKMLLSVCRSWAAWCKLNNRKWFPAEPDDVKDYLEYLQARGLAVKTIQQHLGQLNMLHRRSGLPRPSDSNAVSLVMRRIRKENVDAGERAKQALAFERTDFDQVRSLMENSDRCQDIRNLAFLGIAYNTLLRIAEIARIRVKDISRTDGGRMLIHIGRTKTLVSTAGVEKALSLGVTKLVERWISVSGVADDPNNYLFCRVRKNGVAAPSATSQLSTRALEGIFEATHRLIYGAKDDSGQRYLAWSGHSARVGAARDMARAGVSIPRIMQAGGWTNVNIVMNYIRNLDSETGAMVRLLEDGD
# T2: Cre-E123LE-R337E
# T2 chain: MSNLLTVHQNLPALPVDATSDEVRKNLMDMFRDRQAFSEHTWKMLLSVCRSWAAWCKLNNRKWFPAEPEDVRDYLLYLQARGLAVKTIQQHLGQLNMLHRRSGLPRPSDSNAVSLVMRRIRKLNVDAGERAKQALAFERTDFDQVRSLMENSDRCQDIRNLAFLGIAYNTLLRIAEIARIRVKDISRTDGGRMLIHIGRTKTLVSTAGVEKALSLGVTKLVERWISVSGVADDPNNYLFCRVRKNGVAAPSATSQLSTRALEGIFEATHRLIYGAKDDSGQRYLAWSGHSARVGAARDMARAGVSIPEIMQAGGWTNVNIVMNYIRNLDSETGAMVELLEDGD
# Experiments:
# [1] = target: wild-type Cre recombinase (P1 Bacteriophage) (UniProt P06956); experiment: cell-based or functional assay
# Cre-B2 = target: T1, Cre-B2
# [2] = target: Cre-A2 (P1 Bacteriophage) (UniProt P06956); experiment: cell-based or functional assay
# [3] = target: Cre-B2 (P1 Bacteriophage) (UniProt P06956); experiment: cell-based or functional assay
# Cre-E123LE-R337E = target: T2, Cre-E123LE-R337E
# [4] = target: Cre-B1 (P1 Bacteriophage) (UniProt P06956); experiment: cell-based or functional assay
molecule,measurement,setting,value
wild-type Cre recombinase (from UniProt P06956 1-343) (enzyme),"RFP positive cells of 7000 sorted, Ai14 mouse ES reporter cells, promoter hbb + cmv, replicate 1",[1],3910 cells
same,"RFP positive cells of 7000 sorted, Ai14 mouse ES reporter cells, promoter hbb + cmv, replicate 2",[1],4220 cells
same,"RFP positive cells of 7000 sorted, Ai14 mouse ES reporter cells, promoter hbb + cmv, replicate 3",[1],4310 cells
same,"RFP positive cells of 7000 sorted, Ai14 mouse ES reporter cells, promoter hbb + sp1, replicate 1",[1],3820 cells
same,"RFP positive cells of 7000 sorted, Ai14 mouse ES reporter cells, promoter hbb + sp1, replicate 2",[1],3800 cells
same,"RFP positive cells of 7000 sorted, Ai14 mouse ES reporter cells, promoter hbb + sp1, replicate 3",[1],4020 cells
same,"RFP positive cells of 7000 sorted, Ai14 mouse ES reporter cells, promoter hbb, replicate 1",[1],372 cells
same,"RFP positive cells of 7000 sorted, Ai14 mouse ES reporter cells, promoter hbb, replicate 2",[1],391 cells
same,"RFP positive cells of 7000 sorted, Ai14 mouse ES reporter cells, promoter hbb, replicate 3",[1],408 cells
Cre mutant with only the round 2 mutation E308R (protein) MSNLLTVHQNLPALPVDATSDEVRKNLMDMFRDRQAFSEHTWKMLLSVCRSWAAWCKLNNRKWFPAEPEDVRDYLLYLQARGLAVKTIQQHLGQLNMLHRRSGLPRPSDSNAVSLVMRRIRKENVDAGERAKQALAFERTDFDQVRSLMENSDRCQDIRNLAFLGIAYNTLLRIAEIARIRVKDISRTDGGRMLIHIGRTKTLVSTAGVEKALSLGVTKLVERWISVSGVADDPNNYLFCRVRKNGVAAPSATSQLSTRALEGIFEATHRLIYGAKDDSGQRYLAWSGHSARVGAARDMARAGVSIPRIMQAGGWTNVNIVMNYIRNLDSETGAMVRLLEDGD,recombinase activity in vitro,,The salt-bridge swap from round 2 alone yields two Cre mutants with reduced but clear activity (data not shown)
Cre-A2 (protein) MSNLLTVHQNLPALPVDATSDEVRRNLMRMFELRRAFSEHTWKMLLSVCRSWAAWCKLNNRKWFPAEPEDVRDYLLYLQARGLAVKTIQQHLGQLNMLHRRSGLPRPSDSNAVSLVMRRIRKENVDAGERAKQALAFERTDFDQVRSLMENSDRCQDIRNLAFLGIAYNTLLRIAEIARIRVKDISRTDGGRMLIHIGRTKTLVSTAGVEKALSLGVTKLVERWISVSGVADDPNNYLFCRVRKNGVAAPSATSQLSTRALEGIFEATHRLIYGAKDDSGQRYLAWSGHSARVGAARDMARAGVSIPEIMQAGGWTNVNIVMNYIRNLDSETGAMVELLEDGD,"recombinase activity in vitro (loxP excision, gel)",,"while its activity is reduced relative to Cre-A1, the Cre-A2 monomer was still capable of forming a functional homotetrameric complex"
same,"recombinase activity in vitro (loxP excision, gel)",Cre-B2,the Cre-A2+Cre-B2 combination exhibited strong recombinase activity
same,"RFP positive cells of 7000 sorted, Ai14 mouse ES reporter cells, promoter hbb + cmv, replicate 1",[2],1130 cells
same,"RFP positive cells of 7000 sorted, Ai14 mouse ES reporter cells, promoter hbb + cmv, replicate 2",[2],1120 cells
same,"RFP positive cells of 7000 sorted, Ai14 mouse ES reporter cells, promoter hbb + cmv, replicate 3",[2],1050 cells
same,"RFP positive cells of 7000 sorted, Ai14 mouse ES reporter cells, promoter hbb + sp1, replicate 1",[2],1050 cells
same,"RFP positive cells of 7000 sorted, Ai14 mouse ES reporter cells, promoter hbb + sp1, replicate 2",[2],1000 cells
same,"RFP positive cells of 7000 sorted, Ai14 mouse ES reporter cells, promoter hbb + sp1, replicate 3",[2],1120 cells
same,"RFP positive cells of 7000 sorted, Ai14 mouse ES reporter cells, promoter hbb, replicate 1",[2],47 cells
same,"RFP positive cells of 7000 sorted, Ai14 mouse ES reporter cells, promoter hbb, replicate 2",[2],52 cells
same,"RFP positive cells of 7000 sorted, Ai14 mouse ES reporter cells, promoter hbb, replicate 3",[2],41 cells
same,"RFP positive cells of 7000 sorted, Ai14 mouse ES reporter cells, promoter hbb + cmv, replicate 1",[3],3180 cells
same,"RFP positive cells of 7000 sorted, Ai14 mouse ES reporter cells, promoter hbb + cmv, replicate 2",[3],3410 cells
same,"RFP positive cells of 7000 sorted, Ai14 mouse ES reporter cells, promoter hbb + cmv, replicate 3",[3],3700 cells
same,"RFP positive cells of 7000 sorted, Ai14 mouse ES reporter cells, promoter hbb + sp1, replicate 1",[3],3220 cells
same,"RFP positive cells of 7000 sorted, Ai14 mouse ES reporter cells, promoter hbb + sp1, replicate 2",[3],3340 cells
same,"RFP positive cells of 7000 sorted, Ai14 mouse ES reporter cells, promoter hbb + sp1, replicate 3",[3],3590 cells
same,"RFP positive cells of 7000 sorted, Ai14 mouse ES reporter cells, promoter hbb, replicate 1",[3],573 cells
same,"RFP positive cells of 7000 sorted, Ai14 mouse ES reporter cells, promoter hbb, replicate 2",[3],528 cells
same,"RFP positive cells of 7000 sorted, Ai14 mouse ES reporter cells, promoter hbb, replicate 3",[3],607 cells
Cre-E123L-E308R (protein) MSNLLTVHQNLPALPVDATSDEVRKNLMDMFRDRQAFSEHTWKMLLSVCRSWAAWCKLNNRKWFPAEPEDVRDYLLYLQARGLAVKTIQQHLGQLNMLHRRSGLPRPSDSNAVSLVMRRIRKLNVDAGERAKQALAFERTDFDQVRSLMENSDRCQDIRNLAFLGIAYNTLLRIAEIARIRVKDISRTDGGRMLIHIGRTKTLVSTAGVEKALSLGVTKLVERWISVSGVADDPNNYLFCRVRKNGVAAPSATSQLSTRALEGIFEATHRLIYGAKDDSGQRYLAWSGHSARVGAARDMARAGVSIPRIMQAGGWTNVNIVMNYIRNLDSETGAMVRLLEDGD,"recombinase activity in vitro (loxP excision, gel)",Cre-E123LE-R337E,In vitro assays indicated that these mutants do not form an obligate heterotetrameric pair
Cre mutant with only the round 2 mutation R337E (protein) MSNLLTVHQNLPALPVDATSDEVRKNLMDMFRDRQAFSEHTWKMLLSVCRSWAAWCKLNNRKWFPAEPEDVRDYLLYLQARGLAVKTIQQHLGQLNMLHRRSGLPRPSDSNAVSLVMRRIRKENVDAGERAKQALAFERTDFDQVRSLMENSDRCQDIRNLAFLGIAYNTLLRIAEIARIRVKDISRTDGGRMLIHIGRTKTLVSTAGVEKALSLGVTKLVERWISVSGVADDPNNYLFCRVRKNGVAAPSATSQLSTRALEGIFEATHRLIYGAKDDSGQRYLAWSGHSARVGAARDMARAGVSIPEIMQAGGWTNVNIVMNYIRNLDSETGAMVELLEDGD,recombinase activity in vitro,,The salt-bridge swap from round 2 alone yields two Cre mutants with reduced but clear activity (data not shown)
Cre-B2 (protein) MSNLLTVHQNLPALPVDATSDEVRKNLMDMFRDRQAFSEHTWKMLLSVCRSWAAWCKLNNRKWFPAEPDDVKDYLEYLQARGLAVKTIQQHLGQLNMLHRRSGLPRPSDSNAVSLVMRRIRKENVDAGERAKQALAFERTDFDQVRSLMENSDRCQDIRNLAFLGIAYNTLLRIAEIARIRVKDISRTDGGRMLIHIGRTKTLVSTAGVEKALSLGVTKLVERWISVSGVADDPNNYLFCRVRKNGVAAPSATSQLSTRALEGIFEATHRLIYGAKDDSGQRYLAWSGHSARVGAARDMARAGVSIPRIMQAGGWTNVNIVMNYIRNLDSETGAMVRLLEDGD,"recombinase activity in vitro (loxP excision, gel)",,All Cre-B mutants are inactive in isolation.
same,"RFP positive cells of 7000 sorted, Ai14 mouse ES reporter cells, promoter hbb + cmv, replicate 1",[3],2 cells
same,"RFP positive cells of 7000 sorted, Ai14 mouse ES reporter cells, promoter hbb + cmv, replicate 2",[3],2 cells
same,"RFP positive cells of 7000 sorted, Ai14 mouse ES reporter cells, promoter hbb + cmv, replicate 3",[3],4 cells
same,"RFP positive cells of 7000 sorted, Ai14 mouse ES reporter cells, promoter hbb + sp1, replicate 1",[3],2 cells
same,"RFP positive cells of 7000 sorted, Ai14 mouse ES reporter cells, promoter hbb + sp1, replicate 2",[3],1 cells
same,"RFP positive cells of 7000 sorted, Ai14 mouse ES reporter cells, promoter hbb + sp1, replicate 3",[3],3 cells
same,"RFP positive cells of 7000 sorted, Ai14 mouse ES reporter cells, promoter hbb, replicate 1",[3],0 cells
same,"RFP positive cells of 7000 sorted, Ai14 mouse ES reporter cells, promoter hbb, replicate 2",[3],0 cells
same,"RFP positive cells of 7000 sorted, Ai14 mouse ES reporter cells, promoter hbb, replicate 3",[3],1 cells
Cre-B1 (protein) MSNLLTVHQNLPALPVDATSDEVRKNLMDMFRDRQAFSEHTWKMLLSVCRSWAAWCKLNNRKWFPAEPDDVKDYLEYLQARGLAVKTIQQHLGQLNMLHRRSGLPRPSDSNAVSLVMRRIRKENVDAGERAKQALAFERTDFDQVRSLMENSDRCQDIRNLAFLGIAYNTLLRIAEIARIRVKDISRTDGGRMLIHIGRTKTLVSTAGVEKALSLGVTKLVERWISVSGVADDPNNYLFCRVRKNGVAAPSATSQLSTRALEGIFEATHRLIYGAKDDSGQRYLAWSGHSARVGAARDMARAGVSIPEIMQAGGWTNVNIVMNYIRNLDSETGAMVRLLEDGD,"recombinase activity in vitro (loxP excision, gel)",,All Cre-B mutants are inactive in isolation.
same,"RFP positive cells of 7000 sorted, Ai14 mouse ES reporter cells, promoter hbb + cmv, replicate 1",[4],1240 cells
same,"RFP positive cells of 7000 sorted, Ai14 mouse ES reporter cells, promoter hbb + cmv, replicate 2",[4],1260 cells
same,"RFP positive cells of 7000 sorted, Ai14 mouse ES reporter cells, promoter hbb + cmv, replicate 3",[4],1120 cells
same,"RFP positive cells of 7000 sorted, Ai14 mouse ES reporter cells, promoter hbb + sp1, replicate 1",[4],1150 cells
same,"RFP positive cells of 7000 sorted, Ai14 mouse ES reporter cells, promoter hbb + sp1, replicate 2",[4],1080 cells
same,"RFP positive cells of 7000 sorted, Ai14 mouse ES reporter cells, promoter hbb + sp1, replicate 3",[4],1200 cells
same,"RFP positive cells of 7000 sorted, Ai14 mouse ES reporter cells, promoter hbb, replicate 1",[4],97 cells
same,"RFP positive cells of 7000 sorted, Ai14 mouse ES reporter cells, promoter hbb, replicate 2",[4],102 cells
same,"RFP positive cells of 7000 sorted, Ai14 mouse ES reporter cells, promoter hbb, replicate 3",[4],85 cells
